Paper PMC13582642
Where “and” joins values, the source holds several entries; their conditions need not be identical. Equal values may be shown once.

Key:
[1] = SEC; Agilent Bio SEC-3 column, 25 °C, 50 mM sodium phosphate, 150 mM KCl, 10% isopropanol, pH 6.8; samples at 1 mg/ml; fluorescence detection; percentages from peak areas
[2] = target: Fc gamma receptor IIa (human (endogenous in moDCs)) (UniProt P12318)
[3] = target: macrophage mannose receptor (CD206) (human (endogenous in moDCs)) (UniProt P22897)
[4] = target: UV-stressed (aggregated) infliximab; assay: SEC; Agilent Bio SEC-3 column, 25 °C, 50 mM sodium phosphate, 150 mM KCl, 10% isopropanol, pH 6.8; samples at 1 mg/ml; fluorescence detection; percentages from peak areas
[5] = target: UV-stressed (aggregated) infliximab; assay: FFF-MALS; asymmetric flow field flow fractionation (Eclipse AF4) with UV, MALS and dRI detectors; mobile phase 0.01 M monopotassium phosphate, 0.0027 M potassium chloride, 0.137 M sodium chloride

Sequence of UniProt P22897 (P22897 19-1456): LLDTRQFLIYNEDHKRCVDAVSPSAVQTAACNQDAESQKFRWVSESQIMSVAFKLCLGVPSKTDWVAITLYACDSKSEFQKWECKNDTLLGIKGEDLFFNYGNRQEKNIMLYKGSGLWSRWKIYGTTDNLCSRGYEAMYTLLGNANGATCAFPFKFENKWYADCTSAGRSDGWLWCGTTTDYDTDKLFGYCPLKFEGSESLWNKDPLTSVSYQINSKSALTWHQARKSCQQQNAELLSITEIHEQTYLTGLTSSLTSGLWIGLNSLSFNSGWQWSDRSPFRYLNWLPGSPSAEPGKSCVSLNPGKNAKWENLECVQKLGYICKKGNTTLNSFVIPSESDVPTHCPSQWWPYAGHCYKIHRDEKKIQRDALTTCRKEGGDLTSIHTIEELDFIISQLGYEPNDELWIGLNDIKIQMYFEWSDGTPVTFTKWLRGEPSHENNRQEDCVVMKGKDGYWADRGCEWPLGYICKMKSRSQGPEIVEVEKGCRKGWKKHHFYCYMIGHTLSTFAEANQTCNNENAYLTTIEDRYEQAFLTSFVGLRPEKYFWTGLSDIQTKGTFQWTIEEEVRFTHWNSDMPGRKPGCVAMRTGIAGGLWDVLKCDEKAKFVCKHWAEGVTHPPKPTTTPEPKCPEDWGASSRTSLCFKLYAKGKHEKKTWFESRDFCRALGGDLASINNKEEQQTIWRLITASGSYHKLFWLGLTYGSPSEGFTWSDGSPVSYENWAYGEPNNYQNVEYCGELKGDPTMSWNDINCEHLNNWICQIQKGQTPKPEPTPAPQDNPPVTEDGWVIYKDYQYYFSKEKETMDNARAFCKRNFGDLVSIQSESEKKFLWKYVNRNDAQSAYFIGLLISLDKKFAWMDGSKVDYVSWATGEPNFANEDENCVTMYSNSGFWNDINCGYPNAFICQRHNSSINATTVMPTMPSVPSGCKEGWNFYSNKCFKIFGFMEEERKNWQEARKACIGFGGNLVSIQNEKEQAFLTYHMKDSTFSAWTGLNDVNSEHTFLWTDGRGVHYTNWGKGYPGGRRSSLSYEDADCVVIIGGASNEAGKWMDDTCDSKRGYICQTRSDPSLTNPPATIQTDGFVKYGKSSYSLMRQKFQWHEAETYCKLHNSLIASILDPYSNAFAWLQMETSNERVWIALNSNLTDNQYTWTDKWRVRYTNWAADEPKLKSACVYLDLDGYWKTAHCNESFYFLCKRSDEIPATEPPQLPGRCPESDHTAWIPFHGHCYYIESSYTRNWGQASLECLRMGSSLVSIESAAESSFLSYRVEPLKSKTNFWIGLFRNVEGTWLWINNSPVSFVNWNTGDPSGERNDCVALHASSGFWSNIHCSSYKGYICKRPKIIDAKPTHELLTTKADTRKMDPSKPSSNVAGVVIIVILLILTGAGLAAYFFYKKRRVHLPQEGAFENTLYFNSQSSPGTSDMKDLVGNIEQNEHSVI
Sequence of UniProt P12318 (P12318 34-317): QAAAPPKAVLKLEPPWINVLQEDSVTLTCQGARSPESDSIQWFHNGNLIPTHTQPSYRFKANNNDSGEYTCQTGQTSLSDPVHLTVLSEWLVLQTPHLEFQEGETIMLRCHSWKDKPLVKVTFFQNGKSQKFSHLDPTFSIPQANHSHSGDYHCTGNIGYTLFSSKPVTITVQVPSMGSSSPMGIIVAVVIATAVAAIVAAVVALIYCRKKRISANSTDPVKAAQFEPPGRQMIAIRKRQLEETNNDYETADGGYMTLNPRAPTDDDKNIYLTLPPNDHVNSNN

Row | Substance | percent of dimers (ratio of SEC peak areas) [1] | percent of trimers (ratio of SEC peak areas) [1] | reduction of the uptake of AF-488 IFX UV by moDCs after pre-treatment with anti-FcγRIIa Ab (1 µg/ml) [2] | inhibition of the internalization rate of AF-488 IFX UV by moDCs (flow cytometry, 37 °C minus 4 °C) after pre-treatment with anti-CD206 IgG (10 µg/ml) [3] | inhibition of the percentage of moDCs internalizing AF-488 IFX UV after pre-treatment with anti-CD206 IgG (10 µg/ml) [3] | stoichiometry N [4] | percent of dimers (FFF-MALS) [5] | percent of trimers and oligomers (FFF-MALS) [5]
1 | UV-stressed (aggregated) infliximab | 19.27% ± 0.24% dimers | 26.19% ± 3.95 trimers | – | – | – | – | – | –
2 | UV-stressed (aggregated) infliximab (antibody) | – | – | 19% | 39% | 32% | 2 and 3 | 22.4% | 24.7%
